Our source for the response values is paper PMC5105163.

The test deals with HLA-DM, P28067;P28068. Briefly: SPR. The conditions noted are these: parent DR1/CW trace is at 10 µM, parent: est. 0, read off a plot.

Turning to “HLA-DR1/CLIP_(102-120)M107W complex (from UniProt P04233) βG84P; βE87P”, the response (5 µM DR1-βG84PβE87P/CW analyte over immobilised DM) turned out to be 270 RU.

Consider “HLA-DR1/CLIP_(102-120)M107W complex (from UniProt P04233) βE87P”, for which the response (10 µM DR1-βE87P/CW analyte over immobilised DM) came to 50 RU.
